Measurements reported in US20250326826A1 (CENTRO DE INGENIER A GEN TICA Y BIOTECNOLOG A, published 2025).

T1: GST-hVEGF121 (human, UniProt P15692-9 27-147)
T1 construct: plate coating of the VEGF ELISAs; also called human VEGF; not shown: glutathione S-transferase (GST) fusion partner
T1 sequence (looked up): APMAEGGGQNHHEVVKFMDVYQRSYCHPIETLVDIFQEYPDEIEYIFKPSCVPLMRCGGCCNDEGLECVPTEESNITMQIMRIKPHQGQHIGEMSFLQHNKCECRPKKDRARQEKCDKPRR

B1: Nb-FF2 (VHH)
chain: QVQLVESGGGLVQPGGSLRLSCAASGTEDGRLLTLGGSWFRQAPGQGLEAVAAIGAGDRGGATYYADSVKGRFTISRDNSKNTLYLQMNSLRAEDTAVYYCTALYERQPQLAATKVARKWGQGTLVTVSSAHHSEDPSSKAPKAPAQVQLVESGGGLVQPGGSLRLSCAASGTEDGRLLTLGGSWFRQAPGQGLEAVAAIGAGDRGGATYYADSVKGRFTISRDNSKNTLYLQMNSLRAEDTAVYYCTALYERQPQLAATKVARKWGQGTLVTVSSAAAGSEQKLISEEDLNSHHHHHH
notes: Bivalent monospecific tandem VHH for bFGF; with c-myc and histidine tag
B2: Nb-VV6 (VHH)
chain: QVQLVESGGGLVQPGGSLRLSCAASGNSAEDRLYNSYTWFRQAPGQGLEAVAAISSHFSAGLTYYADSVKGRFTISRDNSKNTLYLQMNSLRAEDTAVYYCEITSHASHNDAWSTPRTVWGQGTLVTVSSAHHSEDPSSKAPKAPAQVQLVESGGGLVQPGGSLRLSCAASGNSAQDRLYNSYTWFRQAPGQGLEAVAAISSHFSAGLTYYADSVKGRFTISRDNSKNTLYLQMNSLRAEDTAVYYCEITSHASHNDAWSTPRTVWGQGTLVTVSSAAAGSEQKLISEEDLNSHHHHHH
notes: Bivalent monospecific tandem VHH for VEGF, hinge spacer with cysteines replaced by alanines; with c-myc and histidine tag

Tests used:
[1] = molecular target: T2, Recombinant human bFGF (human, UniProt P09038 143-288, limits assumed); test: competition ELISA, coated bFGF, competitor Fc-FGFR1
T2 construct: Bought (Sigma); also called hFGF-2; human basic fibroblast growth factor
T2 sequence (P09038 143-288 limits assumed): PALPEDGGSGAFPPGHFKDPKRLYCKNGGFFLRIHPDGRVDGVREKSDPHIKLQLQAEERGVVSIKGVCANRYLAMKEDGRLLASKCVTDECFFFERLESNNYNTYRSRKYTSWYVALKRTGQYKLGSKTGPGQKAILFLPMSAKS
Procedure: (§1) The ability of VHHs to hinder receptors for binding to their ligand was assessed by ELISA, for which 96-well plates (NUNC, USA) were coated with GST-hVEGF or bFGF and blocked as described in the previous section. Serial 1:2 dilutions of the purified VHHs, from […] to […], were added and the plates and incubated for 1 h at 37° C. In this step, some wells were left where only PBS-milk was added. […] After 45 min incubation at 37° C., plates were washed with PBS-0.05% Tween. To detect receptor binding, HRP-conjugated anti-human IgG antibody was added, diluted 1:5000 in PBS-0.5% milk. After incubation for 1 h at 37° C., the plates were washed with PBS-Tween, and TMB was added. The reaction was stopped after 10 min. Wells incubated with the receptors without the addition of the antibody fragments were taken as reference for maximum binding in the absence of competitor. In this assay, in the case of inhibition of the VEGF/VEGFR axis, the CIGB166a antibody fragment was used as a positive control, and an anti-FGF polyclonal antibody was used for the FGF/FGFR axis. The percentage of inhibition of receptor binding to its ligand was calculated as follows: […]

[2] = molecular target: bFGF (soluble stimulus added to cell cultures); test: cell-based or functional assay
[3] = molecular target: VEGF (soluble stimulus added to cell cultures); test: cell-based or functional assay
VEGF (soluble stimulus added to cell cultures), sequence (P15692 whole entry): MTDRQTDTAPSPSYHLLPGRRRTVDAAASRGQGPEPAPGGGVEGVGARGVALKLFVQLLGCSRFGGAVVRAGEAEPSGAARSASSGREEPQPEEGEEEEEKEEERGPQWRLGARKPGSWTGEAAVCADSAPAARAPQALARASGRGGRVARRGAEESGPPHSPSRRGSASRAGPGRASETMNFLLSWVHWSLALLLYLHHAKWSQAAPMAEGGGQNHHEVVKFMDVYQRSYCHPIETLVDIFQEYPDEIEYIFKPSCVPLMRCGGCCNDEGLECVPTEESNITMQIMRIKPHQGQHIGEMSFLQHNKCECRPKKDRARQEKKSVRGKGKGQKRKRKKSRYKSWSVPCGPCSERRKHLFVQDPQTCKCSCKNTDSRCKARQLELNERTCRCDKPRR

[4] = molecular target: T2, Recombinant human bFGF; test: ELISA, coated bFGF
Procedure: (§2) The plates were incubated for 1 hour at 37° C. and after several washes, the monoclonal antibody 9E10, specific for c-myc, was added. After one hour of incubation at 25° C. the plates were washed thoroughly. The binding of the fragment to the antigen in the solid phase was detected by the peroxidase activity using 100 μL/well of TMB. The reaction was stopped with 50 μL/well of stop solution, and absorbance values at 450 nm were determined in a microtiter plate reader.
SEQ ID NO: 18 and SEQ ID NO: 19, and the bivalent Nb-VV6 and Nb-FF2, with sequences identified as SEQ ID NO: 20 and SEQ ID NO: 21, were expressed and purified as described in the Example 1. In all cases, the purity and identity of the proteins were verified by SDS-PAGE 12% and anti-polyhistidine Western Blot. […] The experimental mass of the polypeptides and the arrangement of the disulfide bridges were checked by ESI/MS-MS. […] The biological activity of the polypeptides was evaluated by ELISA for recognition of the VEGF and bFGF antigens, and by their ability to displace VEGF and bFGF binding to their respective VEGFR2 and FGFR1 receptors. […] In agreement with the increase in recognition, a decrease in the KD of the fragments was observed, calculated according to the methodology described by Beatty et al (Beatty J D, Beatty B G, Vlahos W G. J Immunol Methods. 1987 Jun. 26;100(1-2):173-9).

[5] = molecular target: T2, Recombinant human bFGF; test: ELISA, coated human bFGF
Procedure: as §2, with “The 96-well plates were coated with 100 μL/well of a solution of GST-hVEGF121, GST-mVEGF120, or GST at a concentration of 20 μg/mL, or with a solution of VEGFKDR- at a concentration of 10 μg/mL, or hFGF-2 or mFGF-2 at a concentration of 5 μg/mL in 1×PBS for 16 hours at 4° C. After the plates were blocked with PBS-5% skim milk for one hour, 1:2 serial dilutions of the purified VHHs were added, starting at 2 μg/mL in PBS-0.5% skim milk. The plates” for “The plates”
SEQ ID NO: 18 and SEQ ID NO: 19, and the bivalent Nb-VV6 and Nb-FF2, with sequences identified as SEQ ID NO: 20 and SEQ ID NO: 21, were expressed and purified as described in the Example 1. In all cases, the purity and identity of the proteins were verified by SDS-PAGE 12% and anti-polyhistidine Western Blot. […] The experimental mass of the polypeptides and the arrangement of the disulfide bridges were checked by ESI/MS-MS. The experimental and theoretical mass, for each polypeptide coincided, with errors less than 0.0015% in all cases, and the formation of intramolecular bridges between C22-C101 and C168-C247 was verified. […] The biological activity of the polypeptides was evaluated by ELISA for recognition of the VEGF and bFGF antigens, and by their ability to displace VEGF and bFGF binding to their respective VEGFR2 and FGFR1 receptors. […] Similarly, it was shown that the ability to displace the binding of antigens by their receptors was not affected.

[6] = molecular target: T1, GST-hVEGF121; test: ELISA, coated GST-hVEGF
Procedure: as §2, with “The 96-well plates were coated with 100 μL/well of a solution of GST-hVEGF121, GST-mVEGF120, or GST at a concentration of 20 μg/mL, or with a solution of VEGFKDR- at a concentration of 10 μg/mL, or hFGF-2 or mFGF-2 at a concentration of 5 μg/mL in 1×PBS for 16 hours at 4° C. After the plates were blocked with PBS-5% skim milk for one hour, 1:2 serial dilutions of the purified VHHs were added, starting at 2 μg/mL in PBS-0.5% skim milk. The plates” for “The plates”
SEQ ID NO: 18 and SEQ ID NO: 19, and the bivalent Nb-VV6 and Nb-FF2, with sequences identified as SEQ ID NO: 20 and SEQ ID NO: 21, were expressed and purified as described in the Example 1. […] The biological activity of the polypeptides was evaluated by ELISA for recognition of the VEGF and bFGF antigens, and by their ability to displace VEGF and bFGF binding to their respective VEGFR2 and FGFR1 receptors. […]

[7] = molecular target: VEGF (soluble stimulus added to cell cultures); test: cell-based or functional assay; remark: listed apart in the source
[8] = molecular target: Human VEGF (dendritic cell assay) (human, UniProt P15692-4 27-191, limits assumed); test: cell-based or functional assay
[9] = molecular target: T1, GST-hVEGF121; test: ELISA, coated GST-hVEGF; remark: listed apart in the source
Procedure: as §2, with “The 96-well plates were coated with 100 μL/well of a solution of GST-hVEGF121, GST-mVEGF120, or GST at a concentration of 20 μg/mL, or with a solution of VEGFKDR- at a concentration of 10 μg/mL, or hFGF-2 or mFGF-2 at a concentration of 5 μg/mL in 1×PBS for 16 hours at 4° C. After the plates were blocked with PBS-5% skim milk for one hour, 1:2 serial dilutions of the purified VHHs were added, starting at 2 μg/mL in PBS-0.5% skim milk. The plates” for “The plates”

[10] = molecular target: T1, GST-hVEGF121; test: competition ELISA, coated GST-hVEGF, competitor Fc-VEGFR2
Procedure: as §1
The biological effect of VEGF is a consequence of its binding to two fundamental receptors (VEGFR1 and VEGFR2), so for a polypeptide that binds to VEGF to be effective in the therapeutic setting, it must block these interactions (Shibuya, Cell Structure and Function, 2001: 26: 25-35). The ability of Nb-V1 to compete with receptors 1 and 2 for binding to its ligand (VEGF) was assessed by solid phase ligand competition ELISA, as described above.

Binder	IC50 [1] [nM]	IC50, proliferation of HDMEC cells +bFGF (10 ng/ml) [2] [nM]	IC50, proliferation of HDMEC cells +VEGF (5 ng/ml) [3] [nM]	fold decrease of EC50 against Nb-F3 [4] [fold]	EC50 [5] [nM]	fold decrease of EC50 against Nb-V1 [6] [fold]	PD1 expression (%) in CD8+ cells treated with VEGF, VHH 1 µg/mL [7] [%]	PD1 expression (%) in CD8+ cells treated with VEGF, VHH 5 µg/mL [7] [%]	PD1 expression (%) in CD8+ cells treated with VEGF, VHH 10 µg/mL [7] [%]	CD86 (MFI) on dendritic cells +VEGF +LPS, VHH 1 µg/mL [8] [MFI]	CD86 (MFI) on dendritic cells +VEGF +LPS, VHH 5 µg/mL [8] [MFI]	CD86 (MFI) on dendritic cells +VEGF +LPS, VHH 10 µg/mL [8] [MFI]	MHCII (MFI) on dendritic cells +VEGF +LPS, VHH 1 µg/mL [8] [MFI]	MHCII (MFI) on dendritic cells +VEGF +LPS, VHH 5 µg/mL [8] [MFI]	MHCII (MFI) on dendritic cells +VEGF +LPS, VHH 10 µg/mL [8] [MFI]	EC50 [9] [nM]	IC50 [10] [nM]
B1	53.5	50	> 6000	2	5.86												
B2		> 6000	30			2	52	41	36	4200	6520	18000	5110	11200	18700	1.9	5.6
